What all share (experiment): ELISA: antibody captured on anti-mouse IgG-Fc plate, C2-tagged EL heparin extract added, anti-C2-tag detection, A450 (Example 8)
A general note: ELISA stands for enzyme-linked immunosorbent assay.

For test [1], the target named is T1, human [1-157]-mouse chimeric EL with C2 tag (human; mouse) (UniProt Q9WVG5).
T1 sequence: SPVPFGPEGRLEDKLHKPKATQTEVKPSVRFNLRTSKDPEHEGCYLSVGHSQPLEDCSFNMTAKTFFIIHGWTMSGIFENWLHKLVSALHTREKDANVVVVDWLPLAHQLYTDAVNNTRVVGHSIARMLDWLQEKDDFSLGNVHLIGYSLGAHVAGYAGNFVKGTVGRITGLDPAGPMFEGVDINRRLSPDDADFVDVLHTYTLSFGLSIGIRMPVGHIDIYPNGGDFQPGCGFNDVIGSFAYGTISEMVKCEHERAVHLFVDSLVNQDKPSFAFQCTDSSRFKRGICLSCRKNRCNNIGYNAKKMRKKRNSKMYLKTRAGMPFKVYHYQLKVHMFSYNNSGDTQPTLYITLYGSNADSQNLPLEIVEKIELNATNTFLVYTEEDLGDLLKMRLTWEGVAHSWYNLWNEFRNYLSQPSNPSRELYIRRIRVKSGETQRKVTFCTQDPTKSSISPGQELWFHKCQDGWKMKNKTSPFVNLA

The target of test [2] is T2, human [202-500]-mouse chimeric EL with C2 tag (mouse; human) (UniProt Q9WVG5).
T2 sequence: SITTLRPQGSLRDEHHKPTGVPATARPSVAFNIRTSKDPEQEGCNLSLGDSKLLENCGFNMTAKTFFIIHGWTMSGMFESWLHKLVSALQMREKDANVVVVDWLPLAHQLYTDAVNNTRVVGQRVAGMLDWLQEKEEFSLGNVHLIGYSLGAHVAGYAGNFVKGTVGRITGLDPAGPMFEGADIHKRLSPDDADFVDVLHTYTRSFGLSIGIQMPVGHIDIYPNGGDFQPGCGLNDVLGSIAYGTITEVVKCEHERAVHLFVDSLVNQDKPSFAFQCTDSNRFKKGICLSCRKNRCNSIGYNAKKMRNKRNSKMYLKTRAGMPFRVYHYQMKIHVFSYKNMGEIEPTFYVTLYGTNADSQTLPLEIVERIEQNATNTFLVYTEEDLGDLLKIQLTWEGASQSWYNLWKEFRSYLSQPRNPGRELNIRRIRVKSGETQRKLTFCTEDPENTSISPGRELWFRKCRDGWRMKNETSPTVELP

For test [3], the target named is T3, human [1-305]-mouse chimeric EL with C2 tag (human; mouse) (UniProt Q9WVG5).
T3 sequence: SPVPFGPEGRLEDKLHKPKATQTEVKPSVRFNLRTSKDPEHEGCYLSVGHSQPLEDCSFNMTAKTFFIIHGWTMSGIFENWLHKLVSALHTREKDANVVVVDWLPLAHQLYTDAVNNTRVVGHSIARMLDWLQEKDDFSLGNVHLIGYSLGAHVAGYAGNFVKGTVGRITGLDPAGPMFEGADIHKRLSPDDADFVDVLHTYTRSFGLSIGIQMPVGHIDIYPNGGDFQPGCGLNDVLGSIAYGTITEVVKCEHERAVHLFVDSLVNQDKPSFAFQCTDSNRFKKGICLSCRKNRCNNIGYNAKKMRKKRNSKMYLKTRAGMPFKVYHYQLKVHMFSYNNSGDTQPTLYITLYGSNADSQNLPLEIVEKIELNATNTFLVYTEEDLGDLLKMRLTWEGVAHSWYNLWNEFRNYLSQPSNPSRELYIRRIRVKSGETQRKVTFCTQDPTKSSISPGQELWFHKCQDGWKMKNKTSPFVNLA

Positions count from the first letter of the chain named.

B1: 23H8 antibody (antibody, V domains shown)
VH: EVQLQQSGPELLKPGASVKISCKASGYTFTDNTIHWVKQSHGKSLEWIGHINPYYGGTNNNEKFKDKATLTVDKSSSTAYMELRSLTSEDSAIYYCARKGIYYSSPFDYWGQGTTLTVSS
VL: DIQMTQTTSSLSASLGDRVTISCRASQDINNYLNWYQQKPDGTVKLLISYTSKLHSGVPSRFSGSGSGTDYSLTISNLEREDFATYFCQQGNTLPFTFGSGTNLEIK
B1 registered an EC50 (read off the curve) in test [1] of 4 ng/mL.

B2: 14E1 antibody (antibody, V domains shown)
VH: QVQLQQSGAELVKPGASVRLSCKASGYTFTKYTIHWVKQRSGQGLEWIGWFYPGSDSIKYNEKFKDKATLTADKSSRTVYMELSRLTSEDSAVYFCARHEEYTNSLAYWGQGTLVTVSA
VL: B1 VL with N30S, K39Q, S49Y, K53R, R80Q, F83I, N92Y, F96W, S100G
Molecule B2 yielded an EC50 (read off the curve) in test [2] of 20 ng/mL.

B3: 53A11 antibody (antibody, V domains shown)
VH: EVQLQQSGPELLKPGASVKISCKASGYTFTDYTMHWVKQSHGKSLEWIGGINPYYGGTTYNEKFKDKATLTVDKSSSTAYMELRSLTSEDSAVYYCAKGDYYGGSYNYWGQGTTLTVSS
VL: DIVLTQSLATLSVTPGDSVSLSCRASQDISNSLHWYQQKSHESPRLLIKYASQSISGIPSRFSGSGSGTDFTLSINSVETEDFGMYFCQQSNSWPYTFGGGTKLEIK
Take B3: the EC50 (read off the curve) in test [1] is 6 ng/mL.

B4: 7D4 antibody (antibody, V domains shown)
VH: QIQLVQSGPELKKPGETVKISCKASGYTFTNYGMNWVKQAPGKDLKWMGWINTYSGVPTYADDFKGRFAFSLETSASTAYLQINNLKNEDTATYFCARFSYYGRHYFDYWGQGTTLTVSS
VL: DIVLTQSPASLAVSLGQRATISCKASQSVDYDGDSYMNWYQQKPGQPPQLLIYAASNLGSGIPARFSGSGSGTDFTLNIHPVEEEDAATYYCHQSTDDPPWTFGGGTKLEIK
In test [1], B4 came in with an EC50 (read off the curve) of 6 ng/mL.

B5: 14A1 antibody (antibody, V domains shown)
VH: B4 VH with D44G, L86F, T115A, V118A
VL: B4 VL with Q49K, G59K, H93Q, S95T
In turn, B5 returned an EC50 (read off the curve) in test [1] of 7 ng/mL. The EC50 (read off the curve) values of the last two molecules are within 1.5-fold of each other.

B6: 55A1 antibody (antibody, V domains shown)
VH: B4 VH with Q3H, D44G, D62G, F99R, S100G, H105R, Y109V, Q112T, L116V
VL: DIVLTQSPASLAVSLGQRATISCKASQSVDYDVDSYMHWYQQKPGQPPKLLIYAASNLASGIPARFSGGGSGTDFTLNIHPVEEEDVATYYCQQTIEDPPTFGGGTKLEIK
In test [1], B6 displayed an EC50 (read off the curve) of 4 ng/mL.

B7: 13B3 antibody (antibody, V domains shown)
VH: EVQLQQSGPELLKPGASVKISCKASGYTFTEYTMHWVKQSHGKSLEWIGSINPYYGGTSYNEKFKDKATLTVDKSSNTAYMEFRSLTSEDCAVYYCARYGNYVGYFDYWGQGTTLTVSS
VL: ENVLTQSPAIMSASLGEKVTMSCRASSSVHYMYWYQQKSDASPKLWIYYTSNLAPGVPDRFSGSGSGNSYSLTISSMEGEDAATYYCQQFTSSPYTFGGGTKLEIK
B7 showed an EC50 (read off the curve) in test [1] of 4 ng/mL.

B8: 19E7 antibody (antibody, V domains shown)
VH: QVQLQQPGSVLVRPGASVKLSCKASGYTFTTYWMHWVKQRPGQGLEWIGEIHPYSGNNNNNEKFKGKATLTVDTSSSTAYVDLSRLTSEDSAVYYCARYDSNYVFAYWGQGTLVTVSA
VL: QIVLTQSPAIMSASPGEGVTITCSASSSVSYMHWFQQKPGTSPKLWIYSTSNLASGVPARFSGSGSGTSYSLTISRMEAEDAATYYCQQRDSYLTFGSGTKLEVK
B8 registered an EC50 (read off the curve) in test [3] of 6 ng/mL.

B9: 16B3 antibody (antibody, V domains shown)
VH: DVKLVESGGGLVQPGGSLKLSCTASGFTFSGYTMSWVRQTPEKRLELVAEISFARDRAFYPDTVKGRFTISRDNAKNTLYLQMSSLKSEDTAMYYCTRLGGRNHDYWYFDVWGTGTTVTVSS
VL: DIVLTQSPTSLAVSPGQRATISCRASESVEYYGTSLMQWYQQKPGQRPQLLIYAASNVESGVPARFSGSGSGTDFSLNIHPVEEDDIAVYFCQQSWKVPFTFGSGTKLEIK
With B9, the EC50 (read off the curve) in test [2] was determined as 4 ng/mL.

B10: 16E7 antibody (antibody, V domains shown)
VH: B9 VH with D1E, T23A, G31S, A54T, D56S, T97A, R102N, H104Y
VL: B9 VL with P15L, Q49K, V89M
B10: in test [2], the EC50 (read off the curve) worked out at 8 ng/mL.

As a reminder, the EC50 (read off the curve) is the concentration that produces a half-maximal response.

Source of the values: US20160009819A1.
